This is an account of results in patent US20050152896A1 (Amgen, published 2005).

Where a chain is given by its changes, count along the chain named.

Assay [1] addresses T1, human galanin (mature, processed form) (human, UniProt P22466 33-62, 125I-labelled in the filtration and immunoprecipitation assays; biotinylated in the IGEN assay and in the BIAcore assay of Table 4).
T1 construct: mature; the assays used the mature peptide; also called biotinylated galanin
T1 peptide (looked up): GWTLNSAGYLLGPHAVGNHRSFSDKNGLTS
Briefly: BIAcore 3000; IgG captured by goat anti-human IgG Fc on CM5, human galanin peptide flowed; 1:1 Langmuir fit. The text has this: In terms of ELISA signal, the top 17 Fab fragments consisted of various combinations of three light chains and five heavy chains. For example, the heavy variable region of Fab P1A7 was identical to the heavy variable regions of Fabs R2E9 and R2E8. The five heavy variable regions were amplified by PCR and the PCR products were subcloned into a human IgG1 heavy chain mammalian expression vector, pVE414N. The three light variable region products were amplified by PCR and were subcloned into a human kappa light chain mammalian expression vector, pDC414N. The sequences of the heavy and light chains constructs were confirmed by DNA sequencing. Fab fragment P1A7 yielded the strongest ELISA signal. To determine which heavy or light variable regions might yield the highest affinity antibody, each heavy chain was co-expressed with the P1A7 light chain, and each light chain was co-expressed with the P1A7 heavy chain. These IgG heavy and light chain combinations were expressed in […] and were purified from the cell culture medium using protein A affinity chromatography. Affinities of these purified antibodies were measured on a BIAcore 3000. Goat anti-human IgG Fc antibody immobilized on CM5 sensor chips was used to capture P1A7 and the variants. Human galanin peptide was flowed over the chip surface with captured anti galanin antibody. The binding kinetics was analyzed using the model fit of 1:1 Langmuir+local Rmax+Mass Transfer. […] Antibodies with P1A7 light chain paired with the five different heavy chains yield nearly identical dissociation constants.
(SPR reads the build-up and loss of mass on a sensor chip optically.)

Assay [2] addresses T2, murine galanin (mature, processed form) (murine, UniProt P47212 33-61, not fully specified).
T2 construct: mature
T2 peptide (looked up): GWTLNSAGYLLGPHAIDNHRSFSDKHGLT
Briefly: epitope mapping.

Assay [3] has as its target T1, human galanin (mature, processed form). Briefly: BIAcore SPR; biotinylated galanin on a streptavidin chip, MAb flowed. As to the method: The galanin binding assay uses the ORIGEN technology (IGEN, Gaithersburg, Md.) and measures solution state binding. 0.75 μg/ml biotinylated galanin and 2 μg/ml ORI-TAG anti-mouse IgG were preincubated with serially diluted MAbs. 0.4 mg/ml streptavidin-coated Dyna beads were added, incubated, and read on an IGEN M8 Analyzer. In the plasmon surface resonance assay, biotinylated galanin was bound to a streptavidin-coated sensor chip and MAbs allowed to pass through the flow cells in order to generate on and off rates. In every assay tested, the MAbs ranked in virtually the same order.

The target in assay [4] is T3, peptide of the 14 C-terminal amino acids of human galanin (human, UniProt P22466 49-62).
T3 construct: domain: 14 C-terminal amino acids of human galanin
T3 peptide (looked up): GNHRSFSDKNGLTS
Briefly: co-crystal structure.

B1: humanized 5B4 IgG1: light chain zu5B4 v04 with heavy chain zu5B4 v04 (antibody, V domains shown)
VH: EVQLVQSGAEVKKPGATVKISCKVSGFNIEDYYMHWVQQAPGKGLEWMGRIDPENGNTIYDPKFQGRVTITADTSTNTAYLDLSSLRSEDTAVYYCARGYVDWGQGTLVTVSS
VL: DVVMTQSPLSLPVTLGQPASISCRSSQSIVHSDGDTYLEWYLQRPGQSPMLLIYKVSNRFSGVPDRFSGSGSGTDFTLKITRVEAEDVGVYYCFQGSHVPYTFGGGTKVEIKR
notes: also called P1A7 (as IgG1); humanized 5B4-v4
Usually Kd stands for a measure of binding affinity in units of concentration. The term koff denotes the first-order rate constant of dissociation. By kon is commonly meant the rate constant with which the complex forms. Take B1: in assay [1], the Kd turned out to be 1.8 nM, the koff worked out at 0.0059 s⁻¹ and the kon came to 3.3e+06 M⁻¹ s⁻¹.

B2: humanized 5B4 IgG1: light chain zu5B4 v04 with heavy chain zu5B4 v13 (antibody, V domains shown)
VH: B1 VH with M48I, L81M
VL: B1 VL
notes: Human IgG1 / human kappa, expressed in E5 cells; VH of humanized 5B4-v13, VL of humanized 5B4-v4
For the molecule B2, in assay [1], the Kd was determined as 1.8 nM, the koff amounted to 0.005 s⁻¹ and the kon was 2.8e+06 M⁻¹ s⁻¹.

B3: humanized 5B4 IgG1: light chain zu5B4 v04 with heavy chain zu5B4 v12 (antibody, V domains shown)
VH: B1 VH with V68A, N77D
VL: B1 VL
notes: Human IgG1 / human kappa, expressed in E5 cells; VH of humanized 5B4-v12, VL of humanized 5B4-v4
For B3, in assay [1], the Kd amounted to 1.5 nM, the dissociation rate constant (koff) was found to be 0.0048 s⁻¹ and the on-rate (kon) is 3.2e+06 M⁻¹ s⁻¹.

B4: humanized 5B4 IgG1: light chain zu5B4 v13 with heavy chain zu5B4 v04 (antibody, V domains shown)
VH: B1 VH
VL: B1 VL with L42Q
notes: Human IgG1 / human kappa, expressed in E5 cells; VH of humanized 5B4-v4, VL of humanized 5B4-v13
As to B4, in assay [1], the Kd is 2 nM, the koff came to 0.007 s⁻¹ and the kon came to 3.5e+06 M⁻¹ s⁻¹.

B5: humanized 5B4 IgG1: light chain zu5B4 v05 with heavy chain zu5B4 v04 (antibody, V domains shown)
VH: B1 VH
VL: B1 VL with L42Q, L51S
notes: Human IgG1 / human kappa, expressed in E5 cells; VH of humanized 5B4-v4, VL of humanized 5B4-v5
For B5, in assay [1], the dissociation constant (Kd) was 2.3 nM, the koff was determined as 0.0095 s⁻¹ and the on-rate (kon) worked out at 4.2e+06 M⁻¹ s⁻¹.

B6: humanized 5B4 IgG1: light chain zu5B4 v04 with heavy chain zu5B4 v06 (antibody, V domains shown)
VH: B1 VH with M48I, V68A
VL: B1 VL
notes: Human IgG1 / human kappa, expressed in E5 cells; VH of humanized 5B4-v6, VL of humanized 5B4-v4
As for B6, in assay [1], the Kd was 1.6 nM, the koff came to 0.0051 s⁻¹ and the on-rate (kon) was determined as 3.2e+06 M⁻¹ s⁻¹.

B7: humanized 5B4 IgG1: light chain zu5B4 v04 with heavy chain zu5B4 v11 (antibody, V domains shown)
VH: B1 VH with L81M
VL: B1 VL
notes: Human IgG1 / human kappa, expressed in E5 cells; VH of humanized 5B4-v11, VL of humanized 5B4-v4
Turning to B7, in assay [1], the Kd was 1.7 nM, the koff worked out at 0.0056 s⁻¹ and the on-rate constant (kon) worked out at 3.2e+06 M⁻¹ s⁻¹.

B8: murine monoclonal antibody 4B3 (antibody, mouse IgG1, V domains shown)
VH: EIQLQQSEAELVKPGASVRLSCATSGFNIKDYYIHWVKQTTEQGLEWIGRIDPEDGETEYAPKFQGKATIAADTSSNTAYLLLNSLSSEDTAVYYCTRGYASWGQGTTLTVSS
VL: DVLMTQTPLSLSVSLGDQASISCRSSQSFVHSDGNTYLEWYLQKSGQSPKLLIYKVSNRFSGVPDRFSGSGSGTDFTLKINRVEAEDLGVYYCFQGSHVPYTFGGGTKLEIKR
notes: purified from ascites
As to B8, the binding result in assay [2] is reported as “binds”. In assay [3], this molecule registered a Ka of 1.4e+10 M⁻¹ and a Kd of 0.07 nM.

B9: murine monoclonal antibody 5B4 (antibody, mouse IgG2a, V domains shown)
VH: EVQLQQSGAELVRPGALVKLSCKASGFNIEDYYMHWVRQRPEEGLEWIGRIDPENGNTIYDPKFQGKASITADTSSNTAYLQLSSLTSEDTAVYYCVRGYVDWGQGTLVTVSA
VL: B8 VL with S12P, F29I, N35D, S45A, N81S, V90L
notes: purified from ascites; also called hybridoma 5B4C1 (ATCC PTA-5651)
Regarding B9, the binding result in assay [2] is “binds”. Also, in assay [3], the Ka was determined as 7.5e+09 M⁻¹ and the affinity, expressed as Kd, was 0.13 nM.

B10: murine monoclonal antibody 2H9 (antibody, mouse IgG1, V domains shown)
VH: B8 VH
VL: B8 VL
In assay [3], B10 had a Ka of 6.7e+09 M⁻¹ and a Kd of 0.15 nM.

B11: murine monoclonal antibody 2F8 (antibody, mouse IgG1, V domains shown)
VH: B9 VH with M34I, I70L, Y95F, V97A
VL: B8 VL with S12P, F29I, N35D, S45P, N81I, V90L, Y92F
B11: the binding result in assay [2] is “binds”. In assay [3], the Ka is 6.8e+09 M⁻¹ and the Kd was 0.15 nM.

B12: Fab fragment of murine antibody 1D7 (Fab, V domains shown)
VH: B8 VH
VL: B8 VL
notes: Papain Fab of the hybridoma antibody; also called 1D7 Fab
On to B12, for which the binding result in assay [4] is “binds”.

B13: Fab fragment of murine antibody 4B3 (Fab, V domains shown)
VH: B8 VH
VL: B8 VL
notes: Papain Fab of the hybridoma antibody; also called 4B3 Fab
Take B13: in assay [4], the binding result is “binds”.

B14: Fab fragment of murine antibody 5B4 (Fab, V domains shown)
VH: B9 VH
VL: B8 VL with S12P, F29I, N35D, S45A, N81S, V90L
notes: Papain Fab of the hybridoma antibody; also called 5B4 Fab
For the molecule B14, in assay [4], the binding result is listed as “binds”.

B15: murine monoclonal antibody 1D7 (antibody, mouse IgG1, V domains shown)
VH: B8 VH
VL: B8 VL
notes: purified from ascites; also called hybridoma 1D7D1 (ATCC PTA-5650)
As to B15, the binding result in assay [2] is “binds”. In assay [3], this molecule showed a Ka of 1.5e+10 M⁻¹ and a Kd of 0.09 nM.

B16: murine monoclonal antibody 1G12 (antibody, mouse IgG1, V domains shown)
VH: EVQLQQSGAELVKPGASVQLSCTASGFNIKDYYIHWVQQRTEQGLEWIGRIDPEDGEIEYAPKFQDKATITADTSSNTAYLQLSSLTSEDSAVYYCTRGYASWGQGTTLTVSS
VL: B8 VL with S12P, S28T, S45P, N81S
notes: The legend prints 'murine 1G2' for the VH
Regarding B16, the binding result in assay [2] was “binds”. In assay [3], the Ka came to 9.3e+09 M⁻¹ and the Kd turned out to be 0.11 nM.

B17: murine monoclonal antibody 1A1 (antibody, V domains shown)
VH: B9 VH with V2I, G8E, A24T, E30K, R38K, E43Q, G56D, T58S, K63N
VL: B8 VL with S12P, F29I, N35D, S45P, Y54F, N81S
notes: the legend is followed
On to B17, for which, in assay [3], the Ka was 2.5e+09 M⁻¹ and binding was characterised by a dissociation constant (Kd) of 0.4 nM.

B18: murine monoclonal antibody 2E11 (antibody, V domains shown)
VH: EIQLQQSGAEVMKPGASVKISCKATGYTFSNYWIEWIKQRPGHGLEWIGEILPGSESTKYNEKFKGKATFTTDTSSNTAYMQLSSLTSEDSAVYYCATFYGGFDYWGQGTTLTVSS
VL: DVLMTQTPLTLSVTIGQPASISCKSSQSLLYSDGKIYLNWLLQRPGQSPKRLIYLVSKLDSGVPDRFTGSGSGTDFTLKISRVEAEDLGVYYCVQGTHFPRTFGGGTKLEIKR
notes: the legend is followed
As to B18, in assay [2], the binding result was “binds”. Further, in assay [3], the Ka came to 5e+08 M⁻¹ and the dissociation constant Kd was found to be 2.1 nM.
